According to US9969998B2, “Compositions of adenosine deaminase-2 (ADA2), variants thereof and methods of using same” (Halozyme, Inc., priority 2014, dated 2018):
Changes are numbered by the printed parent chain. In names and notes the source's numbering stands.

Tests used:
[1] = molecular target: T1, ADA2 (Homo sapiens, UniProt Q9NZK5); conditions: cited from earlier work
T1 sequence (Q9NZK5 30-511): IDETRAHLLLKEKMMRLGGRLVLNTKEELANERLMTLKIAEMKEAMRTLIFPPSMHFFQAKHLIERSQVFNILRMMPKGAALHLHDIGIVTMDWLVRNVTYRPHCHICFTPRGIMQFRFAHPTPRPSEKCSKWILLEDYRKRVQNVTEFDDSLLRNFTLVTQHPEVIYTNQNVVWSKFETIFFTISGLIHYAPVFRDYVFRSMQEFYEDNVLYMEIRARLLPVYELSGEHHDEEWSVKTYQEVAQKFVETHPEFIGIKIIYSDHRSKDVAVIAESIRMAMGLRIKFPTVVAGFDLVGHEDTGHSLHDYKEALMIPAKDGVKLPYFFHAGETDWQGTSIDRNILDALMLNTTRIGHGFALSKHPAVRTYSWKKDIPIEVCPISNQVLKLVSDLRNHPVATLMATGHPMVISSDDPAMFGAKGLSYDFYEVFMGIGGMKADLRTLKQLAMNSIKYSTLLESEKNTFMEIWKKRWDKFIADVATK

[2] = molecular target: T2, ADA1 (Homo sapiens, UniProt P00813); conditions: cited from earlier work
T2 sequence (P00813 1-363): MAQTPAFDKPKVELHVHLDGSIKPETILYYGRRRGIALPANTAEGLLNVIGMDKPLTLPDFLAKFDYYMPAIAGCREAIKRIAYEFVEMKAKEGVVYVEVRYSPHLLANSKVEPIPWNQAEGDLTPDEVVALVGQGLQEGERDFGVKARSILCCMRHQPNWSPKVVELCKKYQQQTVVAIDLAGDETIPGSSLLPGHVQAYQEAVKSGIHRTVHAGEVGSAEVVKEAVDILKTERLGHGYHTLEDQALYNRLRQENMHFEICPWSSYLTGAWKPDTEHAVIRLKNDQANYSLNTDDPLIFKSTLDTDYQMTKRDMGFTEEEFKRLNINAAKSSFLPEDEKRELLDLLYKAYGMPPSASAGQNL

[3] = mouse, in vivo, iv, 3 mg/kg
Source text: (§1) Twenty-seven (27) male BALB/c mice were divided into three (3) dosing groups, and were further divided into three (3) groups each for sampling of blood at different time points. Thus, the mice were randomized into nine (9) groups total. Mice were weighed prior to the start of the study, and randomized into the 9 groups based upon their body weights. In each sampling group, three groups of (3) mice were used for dosing each test article to prevent oversampling of the blood from the animals. For measurement of baseline ADA2 levels, a blood sample was obtained from 12 randomly chosen mice and plasma was prepared using the anti-coagulant potassium (K3) ethylene diamine tetraacetic acid (K3-EDTA). All blood was collected by submandibular venipuncture.
(§2) PEGylated ADA2 variants were prepared using the PEGylation method as described in Example 8.A, with minor modifications. Briefly, all ADA2 variants at 10 mg/mL were PEGylated with linear PEG-20K (JenKem Technology, Plano, Tex.; Cat. No. M-SCM-20K) at 1:15 molar ratio and incubated first at 37° for 30 min, then at 4° C. for 16 hours.
(§3) Approximately 200 μL of whole blood was collected at designated sampling time points from appropriate groups of mice as indicated below in Table 38 and kept on ice until plasma preparation. The initial two (2) blood samples were collected by submandibular venipuncture. The final sample was collected from a terminal bleed. Plasma was prepared by centrifuging the blood (500×g for 5 min at 4° C.), transferring the plasma to a fresh tube and immediately freezing at −80° C. until the adenosine deaminase activity assay. Adenosine deaminase activity was determined as described in Example 4.
(§4) Non-compartmental analysis (NCA) was conducted using the Phoenix WinNonlin version 6.3 (Pharsight Corp, St. Louis, Mo. 63101). The half-life, or time taken for the activity of ADA2 proteins to be reduced by half, was calculated. Also, total exposure was measured by calculating the Area Under the Concentration-time Curve (AUC). The AUC and half-life values were obtained from the unweighted average from each test article group. The following options in the Phoenix WinNonlin program were used for data analysis: (i) linear trapezoidal/linear interpolation option for AUC; (ii) best-fit slope selection option for terminal slope; and (iii) uniform weighting of the data.

[4] = tested on: MH194+PSC4 pancreatic tumor; assay: Tumor growth inhibition and survival, MH194+PSC4 syngeneic tumor model; type: in vivo, C57BL/6 mice; conditions: for Tumor Growth Inhibition: vs vehicle; for Increase in MST: vs vehicle (MST 27 days)
Experimental: The murine MH194+PSC4 syngeneic tumor model was used to assess the antitumor efficacy of PEGylated a recombinant adenosine deaminase 2 (ADA2), PEGylated rHuADA2-R222Q/S265N (PEG-R222Q/S265N; PEG-R219Q/S262N by mature numbering).
The PSC4 cells are isolated and immortalized pancreatic stellate cells. To generate the PSC4 cells, pancreas from C57BL/6 mice were minced with razor blades and placed in 2 mL of a digestion buffer containing 0.05% collagenase P, 0.1% DNAse, and 0.02% Pronase in Gey's balanced salt solution (GBSS). Following two 15 min digestion incubations at 37° C. with thorough mixing after each incubation, the resulting cell suspension was filtered through a 100 μm nylon mesh, washed twice in GBSS with 0.3% bovine serum albumin (BSA), and resuspended in 10 mL GBSS/BSA. Eight mL of Histodenz (Sigma, Cat. No. D2158) was added to the cell suspension, and the entire volume was pipetted under 6 mL GBSS/BSA in order to generate a discontinuous density gradient. Following centrifugation for 20 min at 1,400 g with the brake set at zero, the desired cells were harvested from the interface between the two density volumes and washed once with PBS and once with DMEM medium supplemented with 2 mM L-glutamine, 10% fetal bovine serum, and 1% amphotericin-B (complete DMEM). Cells were immortalized using Lenti-SV40 (Capital Biosciences, Cat. No. CIP-0011) using manufacturer's protocol. The resulting cell line, designated PSC4, were maintained in tissue culture as an adherent monolayer in complete DMEM at 37° C. and 5% CO2. The MH194 mouse pancreatic carcinoma cells are derived from the KrasLSL.G12D/+p53R172H/+PdxCretg/+ genetically engineered mouse model. […]
Thirty-nine (39) male C57BL/6 mice were co-inoculated subcutaneously with 5×10^6 of a mixture of murine MH194 pancreatic cancer tumor cells and murine PSC4 pancreatic stellate cells in 0.1 mL injection volume per animal. Tumor volume was determined using digital calipers via measurement of length (L) and width (W) of the solid tumor masses. Tumor volume (TV) was calculated as: (L×W^2)/2. Tumors were allowed to grow and tumor bearing mice were staged for test article administration when the tumors were palpable and measured to be approximately 50-100 mm^3.
PEG-R222Q/S265N was prepared using similar methods as described in Example 8.A, with minor modifications to generate a preparation in which approximately 100% of the molecules were PEGylated as assessed by SDS-PAGE.
For treatment, MH194+PSC4 tumor bearing mice were randomized into five treatment groups (n=≤8); vehicle control (buffer only) or PEG-R222Q/S265N at four treatment doses. MH194+PSC4 tumor bearing mice were then injected intravenously (IV) every other day, at 0.003 mg/kg body weight, 0.03 mg/kg body weight, 0.3 mg/kg body weight and 3 mg/kg body weight of PEG-R222Q/S265N, or vehicle. […] Median survival time (MST) (in days) was calculated as the time at which 50% of the mice of the individual groups reached one of the following endpoints: (1) tumor volume reaches 2000 mm^3, (2) the animal loses >25% of its body weight, or (3) the animal appears moribund.

[5] = In vivo pharmacokinetics of PEGylated rHuADA2 combination variants (Example 14); conditions: 3 mg/kg intravenous
Source text: as §1, §2, §3, §4

[6] = Heparin binding ELISA (immobilized heparin); conditions: Example 8
Experimental: Heparin binding of a protein, such as any ADA2 provided herein, can also be assessed using enzyme-linked immunosorbant assay (ELISA) based methods. ELISA-based methods use heparin immobilized on a surface, such as a microtiter plate. The protein of interest which binds to heparin, such as any ADA2 provided herein, is incubated in the heparin coated plate, and binding is detected using antibodies that detect the protein of interest, such as any ADA2 provided herein.
For example, a 96-well plate coated with 100 μL of 200 μg/mL heparin sodium salt (Calibochem, EMD Milipore, Billerica, Mass.; Cat. No. 375095) in Na2CO3 buffer (pH 9.6) can be used to test ADA2 binding to heparin. […] The optical density (OD) of each reaction is measured on a plate reader.
In another example, heparin is immobilized by incubating Streptavidin-coated microtiter plates, such as the Streptavidin-coated 96-well plate (Thermo Fisher Scientific, Rockford, Ill.; Cat. No. 15520), with biotinylated heparin, such as biotin-heparin (Sigma-Aldrich, St. Louis, Mo.; Cat No. B9806-10MG). […] The optical density (OD) of each reaction is measured on a plate reader. […]

[7] = 0.003 mg/kg IV every other day, day 11
[8] = 0.03 mg/kg IV every other day, day 11
[9] = 0.3 mg/kg IV every other day, day 11
[10] = 3 mg/kg IV every other day, day 11
[11] = day 11, 0.003 mg/kg IV every other day
[12] = male BALB/c mice, WT from Example 9

OC[C@H]1O[C@@H](n2cnc3c2N=CNC[C@H]3O)[C@H](O)[C@@H]1O [Coformycin]
inhibition of ADA2 [1]: potent inhibitors | inhibition of ADA1 [2]: potent inhibitors

CCCCCC[C@H]([C@H](C)O)n1cnc2c(N)ncnc21 [EHNA, (+)-erythro-9-(2-hydroxy-3-nonyl)adenine]
inhibition of ADA2 [1]: does not inhibit ADA2 | inhibition of ADA1 [2]: selectively inhibits ADA1

B1: PEG-R222Q/S265N: rHuADA2-R222Q/S265N (SEQ ID NO:273) PEGylated with linear PEG-20K (conjugate)
chain: T1 sequence (Q9NZK5 30-511) with R219Q, S262N
modifications: linear PEG-20K; human ADA2 R219Q/S262N, mature numbering
Half-life slow (t1/2) [3]: 2,790 min | Percent increase in t1/2 compared to WT ADA2 [3]: 4,043% | MST (median survival time) ([4]; 0.003 mg/kg IV every other day): 46 days | Average Tumor Volume [4, 7]: 323.9 mm^3 | Tumor Growth Inhibition [4, 7]: 72% | Increase in MST ([4]; 0.003 mg/kg IV every other day): 70% | median survival time (MST) ([4]; 0.003 mg/kg dose): 46 days | mice that survived beyond 41 days ([4]; 0.003 mg/kg dose): Five out of eight | MST (median survival time) ([4]; 0.03 mg/kg IV every other day): 26 days | Average Tumor Volume [4, 8]: 680.45 mm^3 | Tumor Growth Inhibition [4, 8]: 21% | Increase in MST ([4]; 0.03 mg/kg IV every other day): 0% | MST (median survival time) ([4]; 0.3 mg/kg IV every other day): 32.5 days | Survival time ([4]; 0.3 mg/kg IV every other day): 13 to 41 days | Average Tumor Volume [4, 9]: 700.59 mm^3 | Tumor Growth Inhibition [4, 9]: 20% | Increase in MST ([4]; 0.3 mg/kg IV every other day): 20% | MST (median survival time) ([4]; 3 mg/kg IV every other day): 23.5 days | Average Tumor Volume [4, 10]: 678.58 mm^3 | Tumor Growth Inhibition [4, 10]: 22% | Increase in MST ([4]; 3 mg/kg IV every other day): 0% | Average Tumor Volume [4, 11]: approximately 324 mm^3 | tumor growth inhibition (TGI) [4, 11]: approximately 72% | AUC (total exposure) ([5]; BALB/c mice, plasma ADA activity): 16,330 (U * h)/mL | Percent increase in AUC compared to WT ADA2 ([5]; BALB/c mice, vs non-PEGylated WT rHuADA2 of Example 9): 49,661% | AUC higher than the non-PEGylated WT rHuADA2 [5, 12]: 49661% | half-life longer than the non-PEGylated WT rHuADA2 [5, 12]: 4043%

B2: PEGylated ADA2: ADA2 conjugate that is a PEGylated ADA2 (conjugate, UniProt Q9NZK5 30-511, looked up)
Adenosine deaminase 2: T1 sequence (Q9NZK5 30-511)
modifications: PEG
heparin binding compared to the corresponding non-PEGylated ADA2 [6]: reduced heparin binding
